Reference: the supplement of paper PMC9170038

Tested on: MS2 coat protein
Experiment: apparent KD of MS2 coat protein; designed switch direction (-1 OFF switch, 1 ON switch): -1; higher = weaker reporter binding
Procedure, shortened: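 Each step of the titration lasted 0.8–1.5 h at the lowest concentration and 10–20 min at the highest. The protein, SNAP-549-labelled MS2 coat protein, went from 0.7 or 1.5 nM doubling to 3 µM over RNA switches transcribed on Illumina chips by stalled E. coli RNA polymerase. Normalised cluster fluorescence was curve-fitted, and the per-design median over clusters is given as apparent KD.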

[1] = input ligand: microRNA oligo, concentration not stated
[2] = Eterna round: R95, input ligand: microRNA oligo, concentration not stated
[3] = Eterna round: R95, input ligand: FMN 200 uM
[4] = Eterna round: R95, input ligand: none

Row | Sequence | apparent KD of MS2 coat protein (input ligand: FMN 200 uM) [µM] | apparent KD of MS2 coat protein [1] [µM] | apparent KD of MS2 coat protein (input ligand: none) [µM] | apparent KD of MS2 coat protein [2] [µM] | apparent KD of MS2 coat protein [3] [µM] | apparent KD of MS2 coat protein [4] [µM]
1 | CCACGUCCGUACGUGUACUUGUCUCCUGAGAGCACGGGCACAUGAGGAUCACCCAUGUUUUUGCUCGUCUUAUGAGC [JR_Sensorv2_tov2_Sub716] (Eterna round: R96, puzzle: Sensor v2, turn-off variant 2) | 0.0138 | 0.0254 | 0.0177 |  |  | 
2 | CCAGCAAAUGUGAGGAUAUGCUGGUCCUUGGAUCAGCAGAAGGCACAUGAGGAUCACCCAUGUGGGAUAGCUGG [Eli bmx4 4.59] (Eterna round: R97, puzzle: Brourd's mod of Exclusion 4) | 0.412 |  | 0.194 |  |  | 
3 | CCAGCAAUUGUCAGGAUAUGCUGGUCCUUGGAUCAGCAGAAGGGACAUGAGGAUCACCCAUGUGGAAAAGCUGG [Eli bmx4 4.64] (Eterna round: R97, puzzle: Brourd's mod of Exclusion 4) | 0.231 |  | 0.0547 |  |  | 
4 | CCAGCGUAUGUGAGGAUAUGCUGGUCCUUGGAUCAGCAGAAGGCACAUGAGGAUCACCCAUGUGAUGACGUUGG [JL bmx4 3.40] (puzzle: Brourd's mod of Exclusion 4) |  |  |  | 0.0426 |  | 
5 | CCAGGAAGGCAGGAUAUCCAAAGCCGUCCCGGCGGAGAAGGGCUAACUUGAGGAUCACCCAAGUGAUGCCUAAC [Oreden] (Eterna round: R97, puzzle: Exclusion 6) | 0.013 |  | 0.0142 |  |  | 
6 | CCAGGCAGGCUAUUUGCUCACAUGAGGAUCACCCAUGUUGUAUCCCUUGAAUCUAGAUGGUUCAGGCUUAAUUAUUU [Eternabot (L2) Solution 28] (Eterna round: R97, puzzle: Sensor, turn-off variant 1) | 0.0475 |  | 0.066 |  |  | 
7 | CCAGUGUAAGGAUAUGACAAUGGUAUCUUCGGAUACCAUUGUCAGAAGGUACAUGAGGAUCACCCAUGUAACAC [Ex4-3: 12] (puzzle: Exclusion 4) |  |  |  | 0.0153 |  | 
8 | CCAUAUAACUGAGGAUAUCAUCGCAACUGACGUUGAGAAGGCAGACAUGAGGAUCACCCAUGUGAUUUCUCAAUAUUAUACAUC [Prohibition 80 - Jieux - Exclusion NG 1] (Eterna round: R96, puzzle: Exclusion NG 1) | 0.245 | 0.0312 | 0.0611 |  |  | 
9 | CCAUCGAGUGUGAGGAUAUGCUGGUCAAUAGAUCAGCAGAAGGCACAUGAGGAUCACCCAUGUGGAGACGGUGG [Mat - Exclusion 4 - JL Mod - D79] (puzzle: Brourd's mod of Exclusion 4) |  |  |  | 0.0448 | 0.333 | 0.0706
10 | CCAUCGUGUGUGAGGAUAUGCUGGACCUUGGUUCAGCAGAAGGCACAUGAGGAUCACCCAUGUGAAGACGGUGG [Mat - Exclusion 4 - JL Mod - D89] (puzzle: Brourd's mod of Exclusion 4) |  |  |  | 0.0246 | 0.0514 | 0.0181
11 | CCAUGGGAGCGAGGAUAUAGCCCAUGGGAAGAGCUAGAAGGCGCAGACAUGAGGAUCACCCAUGUGUUCAUGAGGAGGUGGACA (Eterna round: R96, puzzle: Exclusion NG 1) | 0.0955 | 0.0479 | 0.0737 |  |  | 
12 | CCAUGUUAGCAGGAUAUGCCAUUAUUCCUUUACGCAGAAGGGCUUACAUGAGGAUCACCCAUGUAACAUUUCAU [JR_E6_Sub083] (puzzle: Exclusion 6) |  |  |  | 0.0141 |  | 
13 | CCAUUAUAAGGAUAUACAUGAGGAUCACCCAUGUACAGGUUAGUUGUACGUACACCGAGUAGAAGGUAUAGAGG [Eternabot (L1) Solution 21] (Eterna round: R97, puzzle: Exclusion 3) | 0.0625 |  | 0.0634 |  |  | 
14 | CCCAGAUAAGGAUAUUGAAGGUUCGACAUGAGGAUCACCCAUGUUAUGUUGGAAAAGGGACAAGAAGGUAUGAAAA [salish99_ex5_r4_216] (Eterna round: R97, puzzle: Exclusion 5) | 0.0312 |  | 0.0331 |  |  | 
15 | CCCAGUUAGAGAGGAUAUCGUACAUGAGGAUCACCCAUGUAAUAAAUGAGGAUUUCGGGUGUCUGCGAGAAGGCUCGGAUAGGC [Ostracism 31 - Jieux - Exclusion NG 2] (Eterna round: R96, puzzle: Exclusion NG 2) | 0.105 | 0.0329 | 0.047 |  |  | 
16 | CCCAGUUAGGAAGGAUAUUGUACAUGAGGAUCACCCAUGUAAUAAAUGAGGAUUUCGGGUGUCUACAAGAAGGUCCGGAUAGGC [Ostracism 13 - Jieux - Exclusion NG 2] (Eterna round: R96, puzzle: Exclusion NG 2) | 0.11 | 0.0392 | 0.0594 |  |  | 
17 | CCCAGUUAGUCAGGAUAUCAUACAUGAGGAUCACCCAUGUAAUAAAUGAGGAUUUCGGGUGUCUAUGAGAAGGGACGGAUAGGC [Ostracism 28 - Jieux - Exclusion NG 2] (Eterna round: R96, puzzle: Exclusion NG 2) | 0.0296 | 0.0188 | 0.0245 |  |  | 
18 | CCCAGUUAGUGAGGAUAUCAUACAUGAGGAUCACCCAUGUAAUAAAUGAGGAUUUCGGGUGUCUAUGAGAAGGCACGGAUAGGC [Ostracism 26 - Jieux - Exclusion NG 2] (Eterna round: R96, puzzle: Exclusion NG 2) | 0.0272 | 0.0222 | 0.0304 |  |  | 
19 | CCCAUAUUGGAAGGAUAUUACCACAUGAGGAUCACCCAUGUGGUUUAAGGCUUACAACGACGUGGUAAGAAGGUCCAUUAUAUG [Eternabot solution 45] (Eterna round: R96, puzzle: Exclusion NG 2) | 0.0281 | 0.0137 | 0.0154 |  |  | 
20 | CCCAUGUCAGGAUAUUAAUUGGGCGGGAAAUCCCACCCACUUGAGAAGGGACAUGAGGAUCACCCAUGUAAAAC [Indila] (Eterna round: R97, puzzle: Exclusion 4) | 0.0666 |  | 0.629 |  |  | 
21 | CCCAUGUCAGGAUAUUAGAUACUGCCGCAAAACAAAGGCAUUGAGAAGGGACAUGAGGAUCACCCAUGUAAAAC [Soraxerila] (Eterna round: R97, puzzle: Exclusion 4) | 0.112 |  | 0.326 |  |  | 
22 | CCCGAACAUGAGGAUCACCCAUGUCAGGAUAUAUUGCAGUGCAGAGCGCGUGCUAAGGAUAGAAGGGACAUGAA [Eternabot (L2) Solution 62] (Eterna round: R97, puzzle: Exclusion 1) | 0.0314 |  | 0.029 |  |  | 
23 | CCCGCAGGUUUUUUGCUCGACAUGAGGAUCACCCAUGUUGUAUGGGUUGUGUGUGUGUGGUGCAUAUAUAUGGUCCU [-25.6, -47.7 kcal, A 16%] (Eterna round: R97, puzzle: Sensor, turn-off variant 1) | 0.427 |  | 0.655 |  |  | 
24 | CCCGGGCGAGGAUAUACAUGAGGAUCACCCAUGUUGGGCUAGUUGGUGGCUCCUCGCGGUAGAAGGCGCACGCG [Edna] (puzzle: Exclusion 3) |  |  |  | 0.0645 | 0.123 | 0.0746
25 | CCCGGGUUAGGAUAUGGGCCCGGGCCCGAAAGGGCCCGGGCCCAGAAGGGACAUGAGGAUCACCCAUGUCCGGG [-53.1, -49.1 kcal, 20% A] (Eterna round: R97, puzzle: Exclusion 4) | 0.0221 |  | 0.0199 |  |  | 
26 | CCCGUCGAUGUAGGAUAUGCCCGGGUCUCCCGGGCAGAAGGACAUGAGGAUCACCCAUGUUCAUGAGCAUCAGCCAUGAAUGGG [Double but mutated MS2] (Eterna round: R96, puzzle: Exclusion NG 1) | 0.0128 | 0.0127 | 0.0202 |  |  | 
27 | CCCGUGUUAGGAUAUACGGCACACCCACAAACGGGUAUAUAGUAGAAGGAACAUGAGGAUCACCCAUGUAAAAC [Qubexeer] (puzzle: Exclusion 4) |  |  |  | 0.0185 |  | 
28 | CCCUCACAUGAGGAUCACCCAUGUAAGGAUAUCUUCGAUUUGACGUGGUUGGAUGCGAAGAGAAGGUACAAGGC [jl-ex1-4.72 ViennaUCT mod] (Eterna round: R97, puzzle: Exclusion 1) | 0.0359 |  | 0.0206 |  |  | 
29 | CCCUCACAUGAGGAUCACCCAUGUCAGGAUAUCUCACAUCAGCCUUAGGCCGAUGUCUAGAGAAGGGACGUAUC [Latees] (puzzle: Exclusion 1) |  |  |  | 0.0213 |  | 
30 | CCCUGCAACUGAGGAUAUCACGGACACCGACGUUGAGAAGGCAGACAUGAGGAUCACCCAUGUGAUUUCUCAAUGCUAAACAUU (Eterna round: R96, puzzle: Exclusion NG 1) | 0.0664 | 0.0296 | 0.0368 |  |  | 
